This passage reports abundance fitness results from the Human Domainome abundance scans (Beltran et al. 2025).

First the molecules themselves.
B1: Protein maelstrom homolog, residues 3 to 71; numbered along this chain, Q96JY0 (parent)
chain: NRKASRNAYYFFVQEKIPELRRRGLPVARVADAIPYCSSDWALLREEEKEKYAEMAREWRAAQGKDPGP

± gives the uncertainty stated by the source.

In this data set the parent is B1. Put plainly: abundance fitness (aPCA) (normalised: wild type 0, dead -1); higher = more abundant; growth selection in yeast, the domain comes from the species named. The settings on record: Homo sapiens.
Consider NRKGSRNAYYFFVQEKIPELRRRGLPVARVADAIPYCSSDWALLREEEKEKYAEMAREWRAAQGKDPGP, for which the abundance fitness is 0.032 ± 0.056. In the case of NRKTSRNAYYFFVQEKIPELRRRGLPVARVADAIPYCSSDWALLREEEKEKYAEMAREWRAAQGKDPGP it was 0.049 ± 0.17; in that of NRKSSRNAYYFFVQEKIPELRRRGLPVARVADAIPYCSSDWALLREEEKEKYAEMAREWRAAQGKDPGP, 0 ± 0.092; in that of NRKRSRNAYYFFVQEKIPELRRRGLPVARVADAIPYCSSDWALLREEEKEKYAEMAREWRAAQGKDPGP, -0.09 ± 0.057. In the case of NRKDSRNAYYFFVQEKIPELRRRGLPVARVADAIPYCSSDWALLREEEKEKYAEMAREWRAAQGKDPGP it was -0.462 ± 0.23.

Turning to NRKNSRNAYYFFVQEKIPELRRRGLPVARVADAIPYCSSDWALLREEEKEKYAEMAREWRAAQGKDPGP, the abundance fitness is -0.371 ± 0.32. With NRKWSRNAYYFFVQEKIPELRRRGLPVARVADAIPYCSSDWALLREEEKEKYAEMAREWRAAQGKDPGP, the abundance fitness is -0.262 ± 0.096. Then NRKVSRNAYYFFVQEKIPELRRRGLPVARVADAIPYCSSDWALLREEEKEKYAEMAREWRAAQGKDPGP, with -0.001 ± 0.085; and NRKESRNAYYFFVQEKIPELRRRGLPVARVADAIPYCSSDWALLREEEKEKYAEMAREWRAAQGKDPGP, with 0.159 ± 0.11; and NRKLSRNAYYFFVQEKIPELRRRGLPVARVADAIPYCSSDWALLREEEKEKYAEMAREWRAAQGKDPGP, with 0.048 ± 0.08. Then NRKHSRNAYYFFVQEKIPELRRRGLPVARVADAIPYCSSDWALLREEEKEKYAEMAREWRAAQGKDPGP, with -1.04 ± 0.39.

Consider NRKASCNAYYFFVQEKIPELRRRGLPVARVADAIPYCSSDWALLREEEKEKYAEMAREWRAAQGKDPGP, for which the abundance fitness is -0.123 ± 0.18.

In the case of NRKASQNAYYFFVQEKIPELRRRGLPVARVADAIPYCSSDWALLREEEKEKYAEMAREWRAAQGKDPGP, the abundance fitness is -0.447 ± 0.24. In the case of NRKASMNAYYFFVQEKIPELRRRGLPVARVADAIPYCSSDWALLREEEKEKYAEMAREWRAAQGKDPGP it was -0.064 ± 0.17; in that of NRKASTNAYYFFVQEKIPELRRRGLPVARVADAIPYCSSDWALLREEEKEKYAEMAREWRAAQGKDPGP, 0.109 ± 0.19. NRKASENAYYFFVQEKIPELRRRGLPVARVADAIPYCSSDWALLREEEKEKYAEMAREWRAAQGKDPGP: the abundance fitness was found to be 0.061 ± 0.17. With NRKASVNAYYFFVQEKIPELRRRGLPVARVADAIPYCSSDWALLREEEKEKYAEMAREWRAAQGKDPGP, the abundance fitness was -0.467 ± 0.24.

NRKASPNAYYFFVQEKIPELRRRGLPVARVADAIPYCSSDWALLREEEKEKYAEMAREWRAAQGKDPGP: the abundance fitness was -0.179 ± 0.14. On to NRKASANAYYFFVQEKIPELRRRGLPVARVADAIPYCSSDWALLREEEKEKYAEMAREWRAAQGKDPGP, for which the abundance fitness is -0.097 ± 0.15. Take NRKASSNAYYFFVQEKIPELRRRGLPVARVADAIPYCSSDWALLREEEKEKYAEMAREWRAAQGKDPGP: the abundance fitness was -0.228 ± 0.15. In the case of NRKASYNAYYFFVQEKIPELRRRGLPVARVADAIPYCSSDWALLREEEKEKYAEMAREWRAAQGKDPGP it was -0.175 ± 0.34; in that of NRKASLNAYYFFVQEKIPELRRRGLPVARVADAIPYCSSDWALLREEEKEKYAEMAREWRAAQGKDPGP, 0.046 ± 0.045; in that of NRKASKNAYYFFVQEKIPELRRRGLPVARVADAIPYCSSDWALLREEEKEKYAEMAREWRAAQGKDPGP, -0.419 ± 0.26. In the case of NRKASRQAYYFFVQEKIPELRRRGLPVARVADAIPYCSSDWALLREEEKEKYAEMAREWRAAQGKDPGP, the abundance fitness is -0.147 ± 0.081.

Regarding NRKASRKAYYFFVQEKIPELRRRGLPVARVADAIPYCSSDWALLREEEKEKYAEMAREWRAAQGKDPGP, the abundance fitness was -0.05 ± 0.092. Consider NRKASRGAYYFFVQEKIPELRRRGLPVARVADAIPYCSSDWALLREEEKEKYAEMAREWRAAQGKDPGP, for which the abundance fitness turned out to be 0.01 ± 0.063. With NRKASRWAYYFFVQEKIPELRRRGLPVARVADAIPYCSSDWALLREEEKEKYAEMAREWRAAQGKDPGP, the abundance fitness is -0.257 ± 0.068. With NRKASRSAYYFFVQEKIPELRRRGLPVARVADAIPYCSSDWALLREEEKEKYAEMAREWRAAQGKDPGP, the abundance fitness is 0.045 ± 0.071. In the case of NRKASRFAYYFFVQEKIPELRRRGLPVARVADAIPYCSSDWALLREEEKEKYAEMAREWRAAQGKDPGP it was -0.233 ± 0.26. On to NRKASRDAYYFFVQEKIPELRRRGLPVARVADAIPYCSSDWALLREEEKEKYAEMAREWRAAQGKDPGP, for which the abundance fitness worked out at 0.212 ± 0.17. As to NRKASRVAYYFFVQEKIPELRRRGLPVARVADAIPYCSSDWALLREEEKEKYAEMAREWRAAQGKDPGP, the abundance fitness is -0.535 ± 0.068. In the case of NRKASRAAYYFFVQEKIPELRRRGLPVARVADAIPYCSSDWALLREEEKEKYAEMAREWRAAQGKDPGP it was -0.993 ± 0.28; in that of NRKASRHAYYFFVQEKIPELRRRGLPVARVADAIPYCSSDWALLREEEKEKYAEMAREWRAAQGKDPGP, -0.267 ± 0.13; in that of NRKASRCAYYFFVQEKIPELRRRGLPVARVADAIPYCSSDWALLREEEKEKYAEMAREWRAAQGKDPGP, -0.497 ± 0.17. Then NRKASRMAYYFFVQEKIPELRRRGLPVARVADAIPYCSSDWALLREEEKEKYAEMAREWRAAQGKDPGP, with 0.015 ± 0.071; and NRKASRPAYYFFVQEKIPELRRRGLPVARVADAIPYCSSDWALLREEEKEKYAEMAREWRAAQGKDPGP, with -0.285 ± 0.13. Then NRKASRIAYYFFVQEKIPELRRRGLPVARVADAIPYCSSDWALLREEEKEKYAEMAREWRAAQGKDPGP, with -0.355 ± 0.22; and NRKASRTAYYFFVQEKIPELRRRGLPVARVADAIPYCSSDWALLREEEKEKYAEMAREWRAAQGKDPGP, with 0 ± 0.12; and NRKASRLAYYFFVQEKIPELRRRGLPVARVADAIPYCSSDWALLREEEKEKYAEMAREWRAAQGKDPGP, with -0.168 ± 0.061.
